Experiments:
[1] = confocal immunofluorescence, x-z sections; settings: glycan lost; control: wild type E-cadherin
[2] = Western blot normalised to ZO-1 or claudin-1; settings: glycan lost; control: wild type E-cadherin (E-cad-myc)
[3] = TER of confluent monolayers on Transwells; settings: glycan lost; control: wild type E-cadherin (E-cad-myc)
[4] = anti-CNX Western blot normalised to actin; settings: glycan lost; control: mock-transfected cells
[5] = ZO-1 immunoprecipitation, Western blot; settings: glycan lost; control: wild type E-cadherin (E-cad-myc)

B1: E-cadherin: V13 (protein)
parent chain: MGPWSRSLSALLLLLQVSSWLCQEPEPCHPGFDAESYTFTVPRRHLERGRVLGRVNFEDCTGRQRTAYFSLDTRFKVGTDGVITVKRPLRFHNPQIHFLVYAWDSTYRKFSTKVTLNTVGHHHRPPPHQASVSGIQAELLTFPNSSPGLRRQKRDWVIPPISCPENEKGPFPKNLVQIKSNKDKEGKVFYSITGQGADTPPVGVFIIERETGWLKVTEPLDRERIATYTLFSHAVSSNGNAVEDPMEILITVTDQNDNKPEFTQEVFKGSVMEGALPGTSVMEVTATDADDDVNTYNAAIAYTILSQDPELPDKNMFTINRNTGVISVVTTGLDRESFPTYTLVVQAADLQGEGLSTTATAVITVTDTNDNPPIFNPTTYKGQVPENEANVVITTLKVTDADAPNTPAWEAVYTILNDDGGQFVVTTNPVNNDGILKTAKGLDFEAKQQYILHVAVTNVVPFEVSLTTSTATVTVDVLDVNEAPIFVPPEKRVEVSEDFGVGQEITSYTAQEPDTFMEQKITYRIWRDTANWLEINPDTGAISTRAELDREDFEHVKNSTYTALIIATDNGSPVATGTGTLLLILSDVNDNAPIPEPRTIFFCERNPKPQVINIIDADLPPNTSPFTAELTHGASANWTIQYNDPTQESIILKPKMALEVGDYKINLKLMDNQNKDQVTTLEVSVCDCEGAAGVCRKAQPVEAGLQIPAILGILGGILALLILILLLLLFLRRRAVVKEPLLPPEDDTRDNVYYYDEEGGGEEDQDFDLSQLHRGLDARPEVTRNDVAPTLMSVPRYLPRPANPDEIGNFIDENLKAADTDPTAPPYDSLLVFDYEGSGSEAASLSSLNSSESDKDQDYDYLNEWGNRFKKLADMYGGGEDD
[1]
  other: apical localisation of gp135 and ZO-1: increases
[2]
  other: Ser-phosphorylation of ZO-1 and claudin-1: increases
[3]
  other: transepithelial resistance: increases
[4]
  other: calnexin expression (UPR marker): no change
[5]
  other: claudin-1 in ZO-1 complexes: increases

Source: PMC2878840
